{
  "source": "patent US20190112392A1",
  "about": "(Ablynx, published 2019)",
  "key": {"[1]": {"target": "T cell receptor alpha/beta on primary cynomolgus T cells (cynomolgus)", "assay": "cell-based or functional assay"}, "HER2 on cells": {"target": "HER2 on cells (human, UniProt P04626 23-1255)", "assay": "cell-based or functional assay"}, "[2]": {"target": "T1, soluble recombinant cynomolgus TCR alpha/beta-zipper protein (cynomolgus/rhesus monkey)", "T1 construct": "Made in house in CHOK1SV cells; extracellular domains fused to a zipper protein; also called cynoTCR-zipper protein; not shown: zipper protein (O'Shea et al. 1993)", "T1 V domain 1": "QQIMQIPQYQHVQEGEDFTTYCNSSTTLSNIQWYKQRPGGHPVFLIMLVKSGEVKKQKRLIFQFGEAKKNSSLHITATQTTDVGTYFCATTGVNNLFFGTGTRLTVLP", "T1 V domain 2": "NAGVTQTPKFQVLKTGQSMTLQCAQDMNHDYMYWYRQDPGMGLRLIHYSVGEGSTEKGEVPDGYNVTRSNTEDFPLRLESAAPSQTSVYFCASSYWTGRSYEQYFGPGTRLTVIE", "assay": "ELISA, coated soluble cynomolgus TCR-zipper", "description": "Quality of the TCR α/β zipper proteins was assessed in an ELISA binding assay. Maxisorp 96-well ELISA plates (Nunc) were coated with 2 μg/mL soluble recombinant human TCR α/β (2XN9)-zipper protein or soluble recombinant cynomolgus TCR α/β-zipper protein. After an overnight incubation, plates were washed and blocked with PBS+1% casein for 1 h at room temperature. Next, plates were incubated with serial dilutions of either a functional flag tagged Nanobody or the functional mouse IgG anti-non-human primate/Rat TCRα/β antibody, clone R73 (eBioscience 16-5960) for 1 h at room temperature while shaking, washed again and incubated with mouse anti-flag-HRP (Sigma, #A8592) respectively rabbit anti-mouse-HRP (Dako, # P0260). After 1 h, TMB One Solution (Promega #G7431) was added. The reaction was stopped with 2M H₂SO₄ and the dose dependent binding was determined by measuring the OD at 450 nm using the Tecan sunrise 4 (FIG. 2).\nBinding of purified monovalent anti-TCR Nanobodies to soluble recombinant cynomolgus TCR c/3 protein was evaluated in ELISA (as described in Example 1.2) using 2 μg/ml directly coated recombinant soluble cynomolgus TCR-α/β zipper protein."}, "[3]": {"target": "T2, human CD3 expressed on HEK293H cells (human, UniProt P04234 22-171; P09693 23-182; P07766 23-207; P20963 22-164)", "T2 construct": "also called HEK293H human CD3; HEK293H CD3", "T2 sequence (P04234 22-171 limits assumed, chain 1 of 4)": "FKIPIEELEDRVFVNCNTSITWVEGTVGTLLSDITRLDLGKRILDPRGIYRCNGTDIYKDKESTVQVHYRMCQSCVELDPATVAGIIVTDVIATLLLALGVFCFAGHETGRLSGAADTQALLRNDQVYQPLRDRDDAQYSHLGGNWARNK", "T2 sequence (P09693 23-182 limits assumed, chain 2 of 4)": "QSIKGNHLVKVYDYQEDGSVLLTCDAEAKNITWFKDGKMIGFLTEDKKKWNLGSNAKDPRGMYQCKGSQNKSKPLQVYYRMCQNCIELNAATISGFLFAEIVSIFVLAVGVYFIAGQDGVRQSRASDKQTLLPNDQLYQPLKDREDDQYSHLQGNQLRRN", "T2 sequence (P07766 23-207 limits assumed, chain 3 of 4)": "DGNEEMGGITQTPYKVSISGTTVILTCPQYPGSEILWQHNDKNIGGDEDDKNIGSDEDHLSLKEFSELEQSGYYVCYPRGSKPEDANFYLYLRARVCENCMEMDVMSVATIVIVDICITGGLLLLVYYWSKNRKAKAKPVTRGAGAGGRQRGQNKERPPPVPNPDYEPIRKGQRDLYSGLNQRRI", "T2 sequence (P20963 22-164 limits assumed, chain 4 of 4)": "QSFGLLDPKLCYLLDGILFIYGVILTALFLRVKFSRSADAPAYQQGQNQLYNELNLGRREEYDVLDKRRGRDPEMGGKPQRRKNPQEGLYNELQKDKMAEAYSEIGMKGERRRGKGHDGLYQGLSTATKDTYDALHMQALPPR", "assay": "flow cytometry, HEK293H human CD3 cells", "description": "(§1) Binding of purified monovalent anti-TCR Nanobodies to human TCR(2IAN)/CD3 expressed on HEK293H cells was evaluated and compared with the binding to HEK293H cells transfected with human CD3 in flow cytometry, as outlined in Example 5. Dilution series of anti-TCR Nanobodies starting from 1 μM were applied to the cells. The parental HEK293H cell line was included as TCR/CD3 negative cell line.\nNanobodies clearly bound to human TCR(2IAN)/CD3 expressed on HEK293H but not to the HEK293H cells transfected with human CD3 only, nor to the HEK293H parental cell line. The EC50 values obtained from the dose response curve are depicted in Table C-2."}, "[4]": {"target": "T2, human CD3 expressed on HEK293H cells", "assay": "flow cytometry on HEK293H human CD3 cells, MCF", "description": "as §1"}, "[5]": {"target": "T3, T cell receptor alpha/beta on purified primary human T cells (human, UniProt P01848 1-140; P01850 1-176)", "T3 construct": "whole, on cells; also called human primary T cells", "T3 TCR alpha (looked up)": "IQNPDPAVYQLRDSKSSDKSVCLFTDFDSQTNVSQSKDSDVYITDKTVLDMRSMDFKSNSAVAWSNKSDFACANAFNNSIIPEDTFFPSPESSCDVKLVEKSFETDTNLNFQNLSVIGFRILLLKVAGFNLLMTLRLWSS", "T3 TCR beta (looked up)": "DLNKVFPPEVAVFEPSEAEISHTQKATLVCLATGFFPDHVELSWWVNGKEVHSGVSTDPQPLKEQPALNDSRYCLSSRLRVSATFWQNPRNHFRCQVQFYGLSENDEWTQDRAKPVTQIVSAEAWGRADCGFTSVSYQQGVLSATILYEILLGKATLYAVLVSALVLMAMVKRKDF", "assay": "flow cytometry, purified primary human T cells", "description": "Periplasmic extracts were screened for cell expressed TCR/CD3 binding using human TCR/CD3 transfected CHO-K1 or HEK293H cells and the respective CHO-K1 or HEK293H reference cell line in a mixed cell line setup. To this end, a large batch of the reference cell lines were labelled with 8 μM PKH26 and frozen. 5×10⁴ PKH labelled reference cells were mixed with 5×10⁴ target cells and incubated with periplasmic extracts for 30 min at 4′C, and washed 3 times. […] Samples were washed, resuspended in FACS Buffer (D-PBS from Gibco, with 10% FBS from Sigma and 0.05% sodium azide from Merck) and then analysed via a BD FACSArray. […] In this gate, 20,000 cells were counted during acquisition. Based on PKH26-SSC distribution, the PKH labelled parental population and the human TCR/CD3 unlabelled target population was selected. For these 2 populations the mean APC value was calculated.\nBinding of purified monovalent anti-TCR Nanobodies to human TCR(2XN9)/CD3 expressed on CHO-K1 cells and to purified primary human T cells was evaluated in flow cytometry as outlined in Example 4.1."}, "EGFR on cells [6]": {"target": "T4, EGFR on cells (UniProt P00533 25-1210, limits assumed)", "T4 construct": "whole, on cells; also called HER14 cells (NIH3T3 transfected with EGFR); EGFR on LS174T and LoVo cells", "assay": "flow cytometry, LS174T cells", "design": "Top: unit not given here"}, "EGFR on cells [7]": {"target": "T4, EGFR on cells", "assay": "cell-based or functional assay"}, "EGFR on cells [8]": {"target": "T4, EGFR on cells", "assay": "cell-based or functional assay", "remark": "listed apart in the source"}, "EGFR on cells [9]": {"target": "T4, EGFR on cells", "assay": "flow cytometry, HER14 cells"}, "EGFR on cells [10]": {"target": "T4, EGFR on cells", "assay": "flow cytometry, LoVo cells", "design": "Top: unit not given here"}},
  "data": [
    {"binder": "T017000102 (bispecific antibody) EVQLVESGGGLVQAGGSLRLSCAASGITFSINTMGWYRQAPGKQRELVALISSIGDTYYADSVKGRFTISRDNAKNTVYLQMNSLKPEDTAVYYCKRFRTAAQGTDYWGQGTLVTVSSGGGGSGGGGSGGGGSGGGGSGGGGSGGGGSGGGGSEVQLVESGGGLVQPGGSLRLSCVASGDVHKINFLGWYRQAPGKEREKVAHISIGDQTDYADSAKGRFTISRDESKNMVYLQMNSLKPEDTAVYFCRAFSRIYPYDYWGQGTLVTVSSGAADYKDHDGDYKDHDIDYKDDDDKGAAHHHHHH", "values": [
      {"measurement": "IC50, xCELLigence cynomolgus T cell mediated SKBR3 killing assay", "setting": "[1]", "result": 0.046, "unit": "nM"},
      {"measurement": "IC50 (column head prints EC50), xCELLigence based cytotoxicity (readout 18 h), MCF-7, human T cells, E/T 15:1", "setting": "HER2 on cells", "result": 0.12, "unit": "nM"},
      {"measurement": "IC50, xCELLigence based cytotoxicity (readout 18 h), SKBR3, human T cells, E/T 15:1", "setting": "HER2 on cells", "result": 0.014, "unit": "nM"}
    ]},
    {"binder": "T0170068G05 (VHH, Monovalent anti-TCR Nanobody, cluster B; expressed in E. coli as triple Flag, His6-tagged protein; also called T0170PMP068G05; not shown: C-terminal triple Flag-His6 tag of the E. coli-made monovalent Nanobody) VHH: VQLVEESGGGLVQPGGSLRLSCITSGETFKINIWGWYRQAPGKQRELVASLTIGGATNYADSVKGRFTISEDSAKNTVYLQMNSLKPEDTAVYFCNAKSRIYPYDYWGRGTQVTVSS", "values": [
      {"measurement": "EC50", "setting": "[2]", "result": 87, "unit": "nM"},
      {"measurement": "MCF at 1 µM", "setting": "[3]", "result": 240, "unit": "MCF"},
      {"measurement": "binding result", "setting": "[4]", "result": "no binding (tested: 1e-6 M)"},
      {"measurement": "EC50", "setting": "[5]", "result": "> 100", "unit": "nM"}
    ]},
    {"binder": "T017000110 (other, EGFR x irrelevant (anti-egg lysozyme) x TCR Nanobody construct; entry includes the FLAG3-HIS6 tag; also called EGFR038G07-35GS-cAbLys3(D1E,Q5V,A6E,Q108L)-35GS-T0170056G05-FLAG3-HIS6) EVQLVESGGGLVQAGGSLRLSCAASGRTFSSYVMGWFRQATGKEREFVATIAWDSGSTYYADSVKGRFTISRDNAKNTVHLQMNSLKPEDTAVYYCAASYNVYYNNYYYPISRDEYDYWGQGTLVTVSSGGGGSGGGGSGGGGSGGGGSGGGGSGGGGSGGGGSEVQLVESGGGSVQAGGSLRLSCAASGYTIGPYCMGWFRQAPGKEREGVAAINMGGGITYYADSVKGRFTISQDNAKNTVYLLMNSLEPEDTAIYYCAADSTIYASYYECGHGLSTGGYGYDSWGQGTLVTVSSGGGGSGGGGSGGGGSGGGGSGGGGSGGGGSGGGGSEVQLVESGGGLVQPGGSLRLSCVASGDVHKINFLGWYRQAPGKEREKVAHISIGDQTDYADSAKGRFTISRDESKNMVYLQMNSLKPEDTAVYFCRAFSRIYPYDYWGQGTLVTVSSGAADYKDHDGDYKDHDIDYKDDDDKGAAHHHHHH", "values": [
      {"measurement": "EC50", "setting": "EGFR on cells [6]", "result": 6.3, "unit": "nM"},
      {"measurement": "Top", "setting": "EGFR on cells [6]", "result": 40800},
      {"measurement": "IC50, xCELLigence human T cell mediated killing of HER14 cells, E:T 15, 50-60 h", "setting": "EGFR on cells [7]", "result": 0.42, "unit": "nM"},
      {"measurement": "IC50, xCELLigence human T cell mediated killing of LS174T cells, E:T 15, 50-60 h", "setting": "EGFR on cells [7]", "result": 8.9, "unit": "nM"},
      {"measurement": "IC50, xCELLigence human T cell mediated killing of LoVo cells, E:T 15, 50-60 h", "setting": "EGFR on cells [7]", "result": 0.6, "unit": "nM"},
      {"measurement": "IC50, xCELLigence human T cell mediated killing of LS174T cells, E:T 15, 30-40 h", "setting": "EGFR on cells [8]", "result": 26, "unit": "nM"},
      {"measurement": "IC50, xCELLigence human T cell mediated killing of LoVo cells, E:T 15, 30-40 h", "setting": "EGFR on cells [8]", "result": 1.5, "unit": "nM"},
      {"measurement": "EC50", "setting": "EGFR on cells [9]", "result": 7.3, "unit": "nM"},
      {"measurement": "Top", "setting": "EGFR on cells [9]", "result": 165000},
      {"measurement": "EC50", "setting": "EGFR on cells [10]", "result": 2.4, "unit": "nM"},
      {"measurement": "Top", "setting": "EGFR on cells [10]", "result": 95900}
    ]},
    {"binder": "T017000103 (bispecific antibody) EVQLVESGGGLVQPGGSLRLSCVASGDVHKINFLGWYRQAPGKEREKVAHISIGDQTDYADSAKGRFTISRDESKNMVYLQMNSLKPEDTAVYFCRAFSRIYPYDYWGQGTLVTVSSGGGGSGGGGSGGGGSGGGGSGGGGSGGGGSGGGGSEVQLVESGGGLVQAGGSLRLSCAASGITFSINTMGWYRQAPGKQRELVALISSIGDTYYADSVKGRFTISRDNAKNTVYLQMNSLKPEDTAVYYCKRFRTAAQGTDYWGQGTLVTVSSGAADYKDHDGDYKDHDIDYKDDDDKGAAHHHHHH", "values": [
      {"measurement": "IC50, xCELLigence cynomolgus T cell mediated SKBR3 killing assay", "setting": "[1]", "result": 0.012, "unit": "nM"},
      {"measurement": "IC50, xCELLigence based cytotoxicity (readout 18 h), MCF-7, human T cells, E/T 15:1", "setting": "HER2 on cells", "result": 0.059, "unit": "nM"},
      {"measurement": "IC50, xCELLigence based cytotoxicity (readout 18 h), SKBR3, human T cells, E/T 15:1", "setting": "HER2 on cells", "result": 0.0038, "unit": "nM"}
    ]}
  ]
}
